Target: β subunit of human prolyl 4-hydroxylase, P07237
Sequence (P07237 18-508): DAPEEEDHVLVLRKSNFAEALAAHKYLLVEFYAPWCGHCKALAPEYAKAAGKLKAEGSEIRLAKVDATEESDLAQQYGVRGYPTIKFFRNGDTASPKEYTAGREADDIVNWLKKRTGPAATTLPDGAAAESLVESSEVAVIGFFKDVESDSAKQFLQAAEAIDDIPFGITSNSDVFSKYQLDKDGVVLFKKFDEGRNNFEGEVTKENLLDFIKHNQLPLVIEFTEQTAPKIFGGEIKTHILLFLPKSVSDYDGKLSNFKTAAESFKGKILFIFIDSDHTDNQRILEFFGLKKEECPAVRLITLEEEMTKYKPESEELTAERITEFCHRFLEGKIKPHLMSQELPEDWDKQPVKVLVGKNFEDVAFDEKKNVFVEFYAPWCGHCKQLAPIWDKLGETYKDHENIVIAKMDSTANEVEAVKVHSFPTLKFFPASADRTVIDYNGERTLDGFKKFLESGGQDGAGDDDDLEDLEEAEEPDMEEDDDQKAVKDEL

B1: α subunit of human prolyl 4-hydroxylase (protein)
chain: HPGFFTSIGQMTDLIHTEKDLVTSLKDYIKAEEDKLEQIKKWAEKLDRLTSTATKDPEGFVGHPVNAFKLMKRLNTEWSELENLVLKDMSDGFISNLTIQRQYFPNDEDQVGAAKALLRLQDTYNLDTDTISKGNLPGVKHKSFLTAEDCFELGKVAYTEADYYHTELWMEQALRQLDEGEISTIDKVSVLDYLSYAVYQQGDLDKALLLTKKLLELDPEHQRANGNLKYFEYIMAKEKDVNKSASDDQSDQKTTPKKKGVAVDYLPERQKYEMLCRGEGIKMTPRRQKKLFCRYHDGNRNPKFILAPAKQEDEWDKPRIIRFHDIISDAEIEIVKDLAKPRLRRATISNPITGDLETVHYRISKSAWLSGYENPVVSRINMRIQDLTGLDVSTAEELQVANYGVGGQYEPHFDFARKDEPDAFKELGTGNRIATWLFYMSDVSAGGATVFPEVGASVWPKKGTAVFWYNLFASGEGDYSTRHAACPVLVGNKWVSNKWLHERGQEFRRPCTLSELE
- prolyl 4-hydroxylase activity (decarboxylation of 2-oxo[1-14C]glutarate) and trimeric assembly of mC21: These data suggest that the P4α and P4β are capable of assembling into an active α2β2 tetramer in the Drosophila expression system
